From patent US20190330638A1 (MAYO FOUNDATION FOR MEDICAL EDUCATION AND RESEARCH, published 2019) come the findings set out here.

The assay addresses T1, Ubiquitin-H4 fusion construct (UniProt P0CG48 1-76; P62805 1-103, limits assumed).
T1 construct: Linear fusion used as control bait for pull-down/mass spectrometry; a single ubiquitin unit is meant; also called Ub-H4; Ubquitin-H4
Briefly: pull-down with fusion construct, mass spectrometry.

Experimental: A search for potential histone H4 ufmylation readers was performed. […] Next, an immunopreciptation assay was performed with STK38 antibody.

B1: serine/threonine kinase 38 (STK38) (enzyme)
chain: not shown
notes: Endogenous protein from cell lysates (pull-down/mass spectrometry, immunoprecipitation with STK38 antibody); also called NDR1
Regarding B1, the binding result is listed as “no binding”.
